Assay results: patent US20200024330A1

Tests used:
Assay in all cases: cell-based or functional assay
[1] = biological target: HIV-1 Env of isolate MGRM-Chronic-B-018 (HIV-1)
[2] = biological target: HIV-1 Env of isolate MGRM-AG-012 (HIV-1)
[3] = biological target: HIV-1 Env of isolate MGRM-Chronic-B-011 (HIV-1)
[4] = biological target: HIV-1 Env of isolate MGRM-G-028 (clade G pseudovirus) (HIV-1)
[5] = biological target: HIV-1 NL43 envelope glycoprotein (Env) on pseudovirus (HIV-1)
[6] = biological target: HIV-1 92RW020 envelope glycoprotein (Env) on pseudovirus (HIV-1)
[7] = biological target: HIV-1 Env of isolate MGRM-AG-001 (HIV-1)
[8] = biological target: HIV-1 Env of isolate MGRM-AE-005 (HIV-1)
[9] = biological target: HIV-1 Env of isolate MGRM-AG-003 (HIV-1)
[10] = biological target: HIV-1 Env of isolate MGRM-AG-008 (HIV-1)
[11] = biological target: HIV-1 Env of isolate MGRM-AE-006 (HIV-1)
[12] = biological target: HIV-1 MGRM-A-007 envelope glycoprotein (Env) (HIV-1)
[13] = biological target: HIV-1 MGRM-F1-016 Env (pseudovirus) (HIV-1)
[14] = biological target: HIV-1 Env of isolate MGRM-AE-004 (HIV-1)
[15] = biological target: HIV-1 92BR020 envelope glycoprotein (Env) on pseudovirus (HIV-1)
[16] = biological target: HIV-1 Env of isolate MGRM-Chronic-B-017 (HIV-1)
[17] = biological target: HIV-1 Env of isolate MGRM-AG-011 (HIV-1)
[18] = biological target: aMLV envelope (negative control pseudovirus)
[19] = biological target: HIV-1 Env of isolate JRFL (HIV-1)
[20] = biological target: HIV-1 Env of isolate MGRM-G-004 (HIV-1)
[21] = biological target: HIV-1 92UG024 envelope glycoprotein (Env) on pseudovirus (HIV-1)
[22] = biological target: HIV-1 Env of isolate MGRM-Chronic-B-024 (HIV-1)
[23] = biological target: HIV-1 Env of isolate MGRM-Chronic-B-020 (HIV-1)
[24] = biological target: HIV-1 Env of isolate MGRM-AG-005 (HIV-1)
[25] = biological target: HIV-1 Env of isolate MGRM-AG-002 (HIV-1)
[26] = biological target: HIV-1 Env of isolate MGRM-Chronic-B-023 (HIV-1)
[27] = biological target: HIV-1 Env of isolate MGRM-G-009 (HIV-1)
[28] = biological target: HIV-1 Env of isolate MGRM-G-001 (HIV-1)
[29] = biological target: HIV-1 Env of isolate MGRM-AG-009 (HIV-1)
[30] = biological target: HIV-1 Env of isolate MGRM-G-006 (HIV-1)
[31] = biological target: HIV-1 Env of isolate MGRM-AG-013 (HIV-1)
[32] = biological target: HIV-1 Env of isolate MGRM-Chronic-B-012 (HIV-1)
[33] = biological target: HIV-1 92TH021 envelope glycoprotein (Env) on pseudovirus (HIV-1)
[34] = biological target: HIV-1 Env of isolate MGRM-AG-006 (HIV-1)
[35] = biological target: HIV-1 Env of isolate MGRM-AE-007 (HIV-1)
[36] = biological target: HIV-1 Env of isolate MGRM-Chronic-B-010 (HIV-1)
[37] = biological target: HIV-1 Env of isolate MGRM-AE-008 (HIV-1)

## 2F5 (antibody)
[1]
  IC50 (µg/ml), pseudovirus neutralization: 10.8 µg/mL
[2]
  IC50 (µg/ml), pseudovirus neutralization: 0.33 µg/mL
[3]
  IC50 (µg/ml), pseudovirus neutralization: 0.81 µg/mL
[4]
  IC50 (µg/ml), pseudovirus neutralization: 2.24 µg/mL
[5]
  IC90 (pseudovirus neutralization): 19.3 µg/mL
[6]
  IC90 (pseudovirus neutralization): 27.7 µg/mL
[7]
  IC50 (µg/ml), pseudovirus neutralization: 0.75 µg/mL
[8]
  IC50 (µg/ml), pseudovirus neutralization: 0.14 µg/mL
[9]
  IC50 (µg/ml), pseudovirus neutralization: 0.14 µg/mL
[10]
  IC50 (µg/ml), pseudovirus neutralization: 0.54 µg/mL
[11]
  IC50 (µg/ml), pseudovirus neutralization: 0.18 µg/mL
[12]
  IC50 (µg/ml), pseudovirus neutralization: 16.3 µg/mL
[13]
  IC50 (µg/ml), pseudovirus neutralization: 21.5 µg/mL
[14]
  IC50 (µg/ml), pseudovirus neutralization: 0.98 µg/mL
[15]
  IC90 (pseudovirus neutralization): > 50 µg/mL
[16]
  IC50 (µg/ml), pseudovirus neutralization: > 50 µg/mL
[17]
  IC50 (µg/ml), pseudovirus neutralization: > 50 µg/mL
[18]
  IC50 (µg/ml), pseudovirus neutralization: > 50 µg/mL
[19]
  IC50 (µg/ml), pseudovirus neutralization: 3.54 µg/mL
[20]
  IC50 (µg/ml), pseudovirus neutralization: > 50 µg/mL
[21]
  IC90 (pseudovirus neutralization): 34.4 µg/mL
[22]
  IC50 (µg/ml), pseudovirus neutralization: > 50 µg/mL
[23]
  IC50 (µg/ml), pseudovirus neutralization: 0.78 µg/mL
[24]
  IC50 (µg/ml), pseudovirus neutralization: > 50 µg/mL
[25]
  IC50 (µg/ml), pseudovirus neutralization: 0.54 µg/mL
[26]
  IC50 (µg/ml), pseudovirus neutralization: 0.1 µg/mL
[27]
  IC50 (µg/ml), pseudovirus neutralization: 7.21 µg/mL
[28]
  IC50 (µg/ml), pseudovirus neutralization: 4.1 µg/mL
[29]
  IC50 (µg/ml), pseudovirus neutralization: 24.8 µg/mL
[30]
  IC50 (µg/ml), pseudovirus neutralization: 1.33 µg/mL
[31]
  IC50 (µg/ml), pseudovirus neutralization: 1.79 µg/mL
[32]
  IC50 (µg/ml), pseudovirus neutralization: 17.6 µg/mL
[33]
  IC90 (pseudovirus neutralization): 18.8 µg/mL
[34]
  IC50 (µg/ml), pseudovirus neutralization: 0.85 µg/mL
[35]
  IC50 (µg/ml), pseudovirus neutralization: 0.07 µg/mL
[36]
  IC50 (µg/ml), pseudovirus neutralization: 0.96 µg/mL
[37]
  IC50 (µg/ml), pseudovirus neutralization: > 50 µg/mL

## 1495_C14 (PGC14) (antibody)
[1]
  IC50 (µg/ml), pseudovirus neutralization: > 50 µg/mL
[2]
  IC50 (µg/ml), pseudovirus neutralization: > 50 µg/mL
[3]
  IC50 (µg/ml), pseudovirus neutralization: > 50 µg/mL
[4]
  IC50 (µg/ml), pseudovirus neutralization: > 50 µg/mL
[7]
  IC50 (µg/ml), pseudovirus neutralization: > 50 µg/mL
[8]
  IC50 (µg/ml), pseudovirus neutralization: > 50 µg/mL
[9]
  IC50 (µg/ml), pseudovirus neutralization: > 50 µg/mL
[10]
  IC50 (µg/ml), pseudovirus neutralization: 45 µg/mL
[11]
  IC50 (µg/ml), pseudovirus neutralization: > 50 µg/mL
[12]
  IC50 (µg/ml), pseudovirus neutralization: > 50 µg/mL
[13]
  IC50 (µg/ml), pseudovirus neutralization: > 50 µg/mL
[14]
  IC50 (µg/ml), pseudovirus neutralization: > 50 µg/mL
[16]
  IC50 (µg/ml), pseudovirus neutralization: > 50 µg/mL
[17]
  IC50 (µg/ml), pseudovirus neutralization: > 50 µg/mL
[18]
  IC50 (µg/ml), pseudovirus neutralization: > 50 µg/mL
[19]
  IC50 (µg/ml), pseudovirus neutralization: > 50 µg/mL
[20]
  IC50 (µg/ml), pseudovirus neutralization: > 50 µg/mL
[22]
  IC50 (µg/ml), pseudovirus neutralization: > 50 µg/mL
[23]
  IC50 (µg/ml), pseudovirus neutralization: > 50 µg/mL
[24]
  IC50 (µg/ml), pseudovirus neutralization: > 50 µg/mL
[25]
  IC50 (µg/ml), pseudovirus neutralization: > 50 µg/mL
[26]
  IC50 (µg/ml), pseudovirus neutralization: > 50 µg/mL
[27]
  IC50 (µg/ml), pseudovirus neutralization: > 50 µg/mL
[28]
  IC50 (µg/ml), pseudovirus neutralization: > 50 µg/mL
[29]
  IC50 (µg/ml), pseudovirus neutralization: > 50 µg/mL
[30]
  IC50 (µg/ml), pseudovirus neutralization: > 50 µg/mL
[31]
  IC50 (µg/ml), pseudovirus neutralization: > 50 µg/mL
[32]
  IC50 (µg/ml), pseudovirus neutralization: > 50 µg/mL
[34]
  IC50 (µg/ml), pseudovirus neutralization: > 50 µg/mL
[35]
  IC50 (µg/ml), pseudovirus neutralization: > 50 µg/mL
[36]
  IC50 (µg/ml), pseudovirus neutralization: 27 µg/mL
[37]
  IC50 (µg/ml), pseudovirus neutralization: > 50 µg/mL

## 1496_C09 (PG9) (TCN-109) (antibody)
[1]
  IC50 (µg/ml), pseudovirus neutralization: 0.16 µg/mL
[2]
  IC50 (µg/mL), pseudovirus neutralization: 22.8 µg/mL
  IC50 (µg/ml), pseudovirus neutralization: 1.37 µg/mL
[5]
  IC50 (ug/ml), neutralizing activity: 0.687 µg/mL
  IC50 neutralization: 0.687 µg/mL
[6]
  IC50 (ug/ml), neutralizing activity: 0.161 µg/mL
  IC50 neutralization: 0.161 µg/mL
  IC80, neutralization: 1.04 µg/mL
  IC90 (pseudovirus neutralization): 6.55 µg/mL
  IC90, neutralization: 3.4 µg/mL
[7]
  IC50 (µg/mL), pseudovirus neutralization: 17.1 µg/mL
  IC50 (µg/ml), pseudovirus neutralization: 8.83 µg/mL
[8]
  IC50 (µg/mL), pseudovirus neutralization: 0.282 µg/mL
  IC50 (µg/ml), pseudovirus neutralization: 0.16 µg/mL
[9]
  IC50 (µg/ml), pseudovirus neutralization: 9.71 µg/mL
[11]
  IC50 (µg/mL), pseudovirus neutralization: 0.063 µg/mL
  IC50 (µg/ml), pseudovirus neutralization: 0.05 µg/mL
[12]
  IC50 (µg/ml), pseudovirus neutralization: 0.37 µg/mL
[13]
  IC50 (µg/ml), pseudovirus neutralization: 0.58 µg/mL
[14]
  IC50 (µg/mL), pseudovirus neutralization: 0.009 µg/mL
  IC50 (µg/ml), pseudovirus neutralization: 0.01 µg/mL
[16]
  IC50 (µg/ml), pseudovirus neutralization: 0.32 µg/mL
[17]
  IC50 (µg/mL), pseudovirus neutralization: 0.007 µg/mL
  IC50 (µg/ml), pseudovirus neutralization: 0.01 µg/mL
[21]
  IC50 (ug/ml), neutralizing activity: 1.91 µg/mL
  IC50 neutralization: 1.91 µg/mL
[22]
  IC50 (µg/ml), pseudovirus neutralization: 0.18 µg/mL
[24]
  IC50 (µg/ml), pseudovirus neutralization: 29.7 µg/mL
[25]
  IC50 (µg/mL), pseudovirus neutralization: 0.076 µg/mL
  IC50 (µg/ml), pseudovirus neutralization: 0.04 µg/mL
[26]
  IC50 (µg/ml), pseudovirus neutralization: 0.04 µg/mL
[27]
  IC50 (µg/ml), pseudovirus neutralization: 4.9 µg/mL
[28]
  IC50 (µg/ml), pseudovirus neutralization: 0.16 µg/mL
[30]
  IC50 (µg/ml), pseudovirus neutralization: 0.51 µg/mL
[31]
  IC50 (µg/mL), pseudovirus neutralization: 0.259 µg/mL
  IC50 (µg/ml), pseudovirus neutralization: 0.23 µg/mL
[32]
  IC50 (µg/ml), pseudovirus neutralization: 0.91 µg/mL
[33]
  IC50 (ug/ml), neutralizing activity: 0.103 µg/mL
  IC50 neutralization: 0.103 µg/mL
  IC80, neutralization: 0.448 µg/mL
  IC90 (pseudovirus neutralization): 1.99 µg/mL
  IC90, neutralization: 1.07 µg/mL
  IC95, neutralization: 2.43 µg/mL
[35]
  IC50 (µg/mL), pseudovirus neutralization: 0.18 µg/mL
[36]
  IC50 (µg/ml), pseudovirus neutralization: 0.004 µg/mL
[37]
  IC50 (µg/mL), pseudovirus neutralization: 31.5 µg/mL
  IC50 (µg/ml), pseudovirus neutralization: 10.6 µg/mL

## PGT-141 (4964_G22; 4993_K13) (antibody)
[2]
  IC50: > 50 µg/mL
[7]
  IC50: 18 µg/mL
[9]
  IC50: > 50 µg/mL
[10]
  IC50: 19.2 µg/mL
[17]
  IC50: 0.118 µg/mL
[18]
  neutralization IC50: > 50 µg/mL
[24]
  IC50: 0.497 µg/mL
[25]
  IC50: 0.049 µg/mL
[29]
  IC50: > 50 µg/mL
[31]
  IC50: > 50 µg/mL
[34]
  IC50: > 50 µg/mL
[35]
  IC50: 33.1 µg/mL
[37]
  IC50: 0.101 µg/mL
